Values quoted from earlier work, collected in publication PMC11231438.

Molecular target: plasminogen (Homo sapiens) (UniProt P00747)
Sequence of UniProt P00747 (P00747 20-810): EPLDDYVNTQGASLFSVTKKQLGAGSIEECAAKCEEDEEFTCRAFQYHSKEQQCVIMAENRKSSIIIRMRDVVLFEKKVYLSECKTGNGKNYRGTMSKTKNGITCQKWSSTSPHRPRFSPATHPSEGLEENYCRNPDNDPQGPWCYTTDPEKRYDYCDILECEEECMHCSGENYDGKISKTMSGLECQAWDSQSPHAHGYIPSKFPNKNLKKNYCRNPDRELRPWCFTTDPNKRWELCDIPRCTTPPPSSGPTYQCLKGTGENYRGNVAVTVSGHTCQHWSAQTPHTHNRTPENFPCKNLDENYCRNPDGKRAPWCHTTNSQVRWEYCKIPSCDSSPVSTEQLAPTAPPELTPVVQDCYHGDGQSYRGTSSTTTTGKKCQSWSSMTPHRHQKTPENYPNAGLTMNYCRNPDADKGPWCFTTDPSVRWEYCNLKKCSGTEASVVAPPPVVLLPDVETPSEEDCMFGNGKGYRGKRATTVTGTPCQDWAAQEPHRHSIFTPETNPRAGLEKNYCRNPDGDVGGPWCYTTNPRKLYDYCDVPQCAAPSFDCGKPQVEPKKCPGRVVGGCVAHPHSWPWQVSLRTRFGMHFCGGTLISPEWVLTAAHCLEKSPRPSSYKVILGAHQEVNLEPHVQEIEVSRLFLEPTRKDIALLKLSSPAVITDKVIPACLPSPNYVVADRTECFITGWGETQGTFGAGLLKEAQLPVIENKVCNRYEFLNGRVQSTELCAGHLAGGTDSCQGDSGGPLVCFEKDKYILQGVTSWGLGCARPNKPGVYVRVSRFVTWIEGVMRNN

For enolase (from UniProt Q96X30), the Kd is given as 530 nM.
